The target of assay [1] is T1, nuclear membrane protein nucleoporin p62 (mouse, UniProt Q63850 2-526).
T1 construct: Negative control protein; detected with anti-Nucleoporin p62 monoclonal clone 53; also called nuclear envelope protein Nucleoporin p62
T1 sequence (looked up): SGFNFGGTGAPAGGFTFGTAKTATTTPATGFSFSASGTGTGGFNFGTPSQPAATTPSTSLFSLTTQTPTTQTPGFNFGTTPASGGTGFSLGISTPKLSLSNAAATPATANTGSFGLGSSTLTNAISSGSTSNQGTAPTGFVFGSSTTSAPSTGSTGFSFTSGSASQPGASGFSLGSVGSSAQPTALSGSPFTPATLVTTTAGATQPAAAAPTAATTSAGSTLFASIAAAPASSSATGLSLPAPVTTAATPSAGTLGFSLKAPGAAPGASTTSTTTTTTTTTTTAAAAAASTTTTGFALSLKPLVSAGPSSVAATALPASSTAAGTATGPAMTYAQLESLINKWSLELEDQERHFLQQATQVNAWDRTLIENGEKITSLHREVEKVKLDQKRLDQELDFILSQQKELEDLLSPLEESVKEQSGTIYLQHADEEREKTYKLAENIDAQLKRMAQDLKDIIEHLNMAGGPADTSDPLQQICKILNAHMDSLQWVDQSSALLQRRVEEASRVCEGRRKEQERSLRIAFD
The assay can be described thus: GST pull-down from mouse C1-1D nuclear extract, Western blot. The source says: (A) Mouse C1-1D cell nuclear extract proteins were allowed to bind to bead immobilized GST-mGPBP fusion proteins. […] The antibodies used to probe these blots were raised against TBP, The C-terminal domain of RNA polymerase II (RNA pol II CTD), Transcription Fraction IIB (TFIIB), Transcription Fraction IIF RAP30 subunit (TFIIF RAP30), P300/CAAT Binding Protein (CBP), and the negative control antibodies against the nuclear envelope protein Nucleoporin p62. The estimated molecular weight of proteins in each band (in Kd) based on electrophoretic mobility in comparison to protein size markers were shown on the right by arrows. (B) In vivo binding of mGPBP was determined by immuno-coprecipitation analyses of cell lysates. […] The antibodies raised against TBP, RNA pol II CTD, TFIIB, CBP, or HA-tag were used as probes as indicated in each blot. The estimated molecular weight of proteins in each band (in Kd) based on electrophoretic mobility in comparison to protein size markers are shown on by arrows. The migration location of the HA-mGPBP fusion protein is also shown on the right of the panel with an arrow.
Nuclear extracts were prepared as previously described (Berger and Kimmel, 1987) with minor modifications. Mouse C1-1D Cells were collected and washed with 10 volumes of PBS once. […]

The target of assay [2] is T1, nuclear membrane protein nucleoporin p62. The assay can be described thus: co-immunoprecipitation with anti-HA antibodies from transfected C1-1D cells, Western blot. The source says:
To examine whether the in vitro complexing of GPBP with transcription factors also occurs in vivo, we performed a co-immunoprecipitation experiment using an HA-tagged mGPBP expression construct in mouse C1-1D cells. The hemagglutinin antigen (HA)-tagged (Field, 1988[2]) mGPBP eukaryotic expression construct pCDNAHA-mGPBP was generated by inserting the (HA) tag coding sequence upstream of, and in frame with, the mGPBP cDNA's ORF in pCDNA-mGPBP. Anti-HA antibodies were used to immunoprecipitate nuclear extract proteins derived from the transfected cells. As a control, nuclear extract from cells transfected with the HA expression vector containing no GPBP-encoding sequences underwent a similar immunoprecipitation procedure.
On the technique in general: In western blotting, separated proteins are transferred to a membrane and probed.

B1: recombinant GST-mGPBP fusion protein (other)
chain: MAQHDFAPAWLNFPTPPSSTKSSLNFEKHSENFSWTENRYDVSRRRHNSSDGFDSGIGRPNGGNFGRKEKNGWRTHGRNGTENINHRGGYHGGNSRSRSSIFHSGKSQGLHENSIPDNETGRKEDKRERRQFEAEDFPSLNPEYEREPNQNKSLAAGVWGLHAQTHTYPTKKISQAPLLDYPPNPKSRTPRMLVIKKGNTKDLQLSGFPVAGNLQSQPVKNGTSPSVYKGLVPKPAVPPTKPTQWKSQTKENKVGTSFSHESTYGVGNFNTFKSTAKNISPSTNSVKECNRSNSSSPVDKLNQQPRLTKLTRMRSDKKSEFLKALKRDRVEEEHEDESHAGSEKDDDSFNLHNSNTTHQERDINRNFDENEIPQENGNASIISQQIIRSSTFPQTDVLSSSLEAEHRLLKEMGWQEDSENDETCAPLTEDEMREFQVISEQLQKNGLRKNGILKNGLICDFKFGPWKNSTFKPTIENDDTETSSSDTSDDDDV
notes: also called immobilized recombinant mGPBP; bead immobilized GST-mGPBP fusion proteins; not shown: N-terminal glutathione S-transferase (GST) carrier and the vector-encoded linker of pGEX-4T-1 between GST and the insert
Turning to B1, in assay [1], the binding result is listed as “no binding”.

B2: HA-tagged mGPBP (other)
chain: MAQHDFAPAWLNFPTPPSSTKSSLNFEKHSENFSWTENRYDVSRRRHNSSDGFDSGIGRPNGGNFGRKEKNGWRTHGRNGTENINHRGGYHGGNSRSRSSIFHSGKSQGLHENSIPDNETGRKEDKRERRQFEAEDFPSLNPEYEREPNQNKSLAAGVWGLHAQTHTYPTKKISQAPLLDYPPNPKSRTPRMLVIKKGNTKDLQLSGFPVAGNLQSQPVKNGTSPSVYKGLVPKPAVPPTKPTQWKSQTKENKVGTSFSHESTYGVGNFNTFKSTAKNISPSTNSVKECNRSNSSSPVDKLNQQPRLTKLTRMRSDKKSEFLKALKRDRVEEEHEDESHAGSEKDDDSFNLHNSNTTHQERDINRNFDENEIPQENGNASIISQQIIRSSTFPQTDVLSSSLEAEHRLLKEMGWQEDSENDETCAPLTEDEMREFQVISEQLQKNGLRKNGILKNGLICDFKFGPWKNSTFKPTIENDDTETSSSDTSDDDDV
notes: Expressed from pCDNAHA-mGPBP in transfected mouse C1-1D cells; whole mGPBP ORF; also called HA-mGPBP; HA-tag fused to mGPBP; not shown: hemagglutinin antigen (HA) tag upstream of and in frame with the ORF
B2: in assay [2], the binding result is reported as “no binding”.

Source of the values: patent US20050130227A1 (MUNIN, published 2005).
